The numbers were not newly measured in patent US9394339B2, “Stabilized formulations of peptides and proteins protecting against non-enzymatic degradation” (Lyotropic Therapeutics, Inc., priority 2007, dated 2016), which cites them from elsewhere.

B1: Branched-chain -keto acid dehydrogenase (1DTW): human protein (protein, UniProt P12694 46-445; P21953 51-392, looked up)
2-oxoisovalerate … 1: SSLDDKPQFPGASAEFIDKLEFIQPNVISGIPIYRVMDRQGQIINPSEDPHLPKEKVLKLYKSMTLLNTMDRILYESQRQGRISFYMTNYGEEGTHVGSAAALDNTDLVFGQYREAGVLMYRDYPLELFMAQCYGNISDLGKGRQMPVHYGCKERHFVTISSPLATQIPQAVGAAYAAKRANANRVVICYFGEGAASEGDAHAGFNFAATLECPIIFFCRNNGYAISTPTSEQYRGDGIAARGPGYGIMSIRVDGNDVFAVYNATKEARRRAVAENQPFLIEAMTYRIGHHSTSDDSSAYRSVDEVNYWDKQDHPISRLRHYLLSQGWWDEEQEKAWRKQSRRKVMEAFEQAERKPKPNPNLLFSDVYQEMPAQLRKQQESLARHLQTYGEHYPLDHFDK
2-oxoisovalerate … 2: VAHFTFQPDPEPREYGQTQKMNLFQSVTSALDNSLAKDPTAVIFGEDVAFGGVFRCTVGLRDKYGKDRVFNTPLCEQGIVGFGIGIAVTGATAIAEIQFADYIFPAFDQIVNEAAKYRYRSGDLFNCGSLTIRSPWGCVGHGALYHSQSPEAFFAHCPGIKVVIPRSPFQAKGLLLSCIEDKNPCIFFEPKILYRAAAEEVPIEPYNIPLSQAEVIQEGSDVTLVAWGTQVHVIREVASMAKEKLGVSCEVIDLRTIIPWDVDTICKSVIKTGRLLISHEAPLTGGFASEISSTVQEECFLNLEAPISRVCGYDTPFPHIFEPFYIPDKWKCYDALRKMINY
B2: Dihydropteridine reductase (1HDR): human protein (protein, UniProt P09417 2-244, looked up)
Dihydropteridine reductase: AAAAAAGEARRVLVYGGRGALGSRCVQAFRARNWWVASVDVVENEEASASIIVKMTDSFTEQADQVTAEVGKLLGEEKVDAILCVAGGWAGGNAKSKSLFKNCDLMWKQSIWTSTISSHLATKHLKEGGLLTLAGAKAALDGTPGMIGYGMAKGAVHQLCQSLAGKNSGMPPGAAAIAVLPVTLDTPMNRKSMPEADFSSWTPLEFLVETFHDWITGKNRPSSGSLIQVVTTEGRTELTPAYF
B3: Carbonic anhydrase IV (1ZNC): human protein (protein, UniProt P22748 19-284, looked up)
Carbonic anhydrase 4: AESHWCYEVQAESSNYPCLVPVKWGGNCQKDRQSPINIVTTKAKVDKKLGRFFFSGYDKKQTWTVQNNGHSVMMLLENKASISGGGLPAPYQAKQLHLHWSDLPYKGSEHSLDGEHFAMEMHIVHEKEKGTSRNVKEAQDPEDEIAVLAFLVEAGTQVNEGFQPLVEALSNIPKPEMSTTMAESSLLDLLPKEEKLRHYFRYLGSLTTPTCDEKVVWTVFREPIQLHREQILAFSQKLYYDKEQTVSMKDNVRPLQQLGQRTVIKS
B4: Purine nucleoside phosphorylase (1ULA): human protein (protein, UniProt P00491 1-289, looked up)
Purine nucleoside …: MENGYTYEDYKNTAEWLLSHTKHRPQVAIICGSGLGGLTDKLTQAQIFDYGEIPNFPRSTVPGHAGRLVFGFLNGRACVMMQGRFHMYEGYPLWKVTFPVRVFHLLGVDTLVVTNAAGGLNPKFEVGDIMLIRDHINLPGFSGQNPLRGPNDERFGDRFPAMSDAYDRTMRQRALSTWKQMGEQRELQEGTYVMVAGPSFETVAECRVLQKLGADAVGMSTVPEVIVARHCGLRVFGFSLITNKVIMDYESLEKANHEEVLAAGKQAAQKLEQFVSILMASIPLPDKAS
B5: Procathepsin L (1CS8): human protein (protein, UniProt P07711 18-333, looked up)
pro-form: TLTFDHSLEAQWTKWKAMHNRLYGMNEEGWRRAVWEKNMKMIELHNQEYREGKHSFTMAMNAFGDMTSEEFRQVMNGFQNRKPRKGKVFQEPLFYEAPRSVDWREKGYVTPVKNQGQCGSCWAFSATGALEGQMFRKTGRLISLSEQNLVDCSGPQGNEGCNGGLMDYAFQYVQDNGGLDSEESYPYEATEESCKYNPKYSVANDTGFVDIPKQEKALMKAVATVGPISVAIDAGHESFLFYKEGIYFEPDCSSEDMDHGVLVVGYGFESTESDNNKYWLVKNSWGEEWGMGGYVKMAKDRRNHCGIASAASYPTV
modifications: pro-form
B6: Procathepsin K (1BY8): human protein (protein, UniProt P43235 16-329, looked up)
pro-form: LYPEEILDTHWELWKKTHRKQYNNKVDEISRRLIWEKNLKYISIHNLEASLGVHTYELAMNHLGDMTSEEVVQKMTGLKVPLSHSRSNDTLYIPEWEGRAPDSVDYRKKGYVTPVKNQGQCGSCWAFSSVGALEGQLKKKTGKLLNLSPQNLVDCVSENDGCGGGYMTNAFQYVQKNRGIDSEDAYPYVGQEESCMYNPTGKAAKCRGYREIPEGNEKALKRAVARVGPVSVAIDASLTSFQFYSKGVYYDESCNSDNLNHAVLAVGYGIQKGNKHWIIKNSWGENWGNKGYILMARNKNNACGIANLASFPKM
modifications: pro-form
B7: Ribonuclease A (1AFK): human protein (protein, UniProt P61823 27-150, looked up)
Ribonuclease pancreatic: KETAAAKFERQHMDSSTSAASSSNYCNQMMKSRNLTKDRCKPVNTFVHESLADVQAVCSQKNVACKNGQTNCYQSYSTMSITDCRETGSSKYPNCAYKTTQANKHIIVACEGNPYVPVHFDASV
B8: Medium chain acyl-coa dehydrogenase (1EGE): human protein (protein, UniProt P11310 26-421, looked up)
Medium-chain specific …: KANRQREPGLGFSFEFTEQQKEFQATARKFAREEIIPVAAEYDKTGEYPVPLIRRAWELGLMNTHIPENCGGLGLGTFDACLISEELAYGCTGVQTAIEGNSLGQMPIIIAGNDQQKKKYLGRMTEEPLMCAYCVTEPGAGSDVAGIKTKAEKKGDEYIINGQKMWITNGGKANWYFLLARSDPDPKAPANKAFTGFIVEADTPGIQIGRKELNMGQRCSDTRGIVFEDVKVPKENVLIGDGAGFKVAMGAFDKTRPVVAAGAVGLAQRALDEATKYALERKTFGKLLVEHQAISFMLAEMAMKVELARMSYQRAAWEVDSGRRNTYYASIAKAFAGDIANQLATDAVQILGGNGFNTEYPVEKLMRDAKIYQIYEGTSQIQRLIVAREHIDKYKN
B9: Transaldolase (1F05): human protein (protein, UniProt P37837 1-337, looked up)
Transaldolase: MSSSPVKRQRMESALDQLKQFTTVVADTGDFHAIDEYKPQDATTNPSLILAAAQMPAYQELVEEAIAYGRKLGGSQEDQIKNAIDKLFVLFGAEILKKIPGRVSTEVDARLSFDKDAMVARARRLIELYKEAGISKDRILIKLSSTWEGIQAGKELEEQHGIHCNMTLLFSFAQAVACAEAGVTLISPFVGRILDWHVANTDKKSYEPLEDPGVKSVTKIYNYYKKFSYKTIVMGASFRNTGEIKALAGCDFLTISPKLLGELLQDNAKLVPVLSAKAAQASDLEKIHLDEKSFRWLHNEDQMAVEKLSDGIRKFAADAVKLERMLTERMFNAENGK
B10: Fructose-1,6-bisphosphatase (1FTA): human protein (protein, UniProt P09467 2-338, looked up)
Fructose-1,6-bisphosphatase 1: ADQAPFDTDVNTLTRFVMEEGRKARGTGELTQLLNSLCTAVKAISSAVRKAGIAHLYGIAGSTNVTGDQVKKLDVLSNDLVMNMLKSSFATCVLVSEEDKHAIIVEPEKRGKYVVCFDPLDGSSNIDCLVSVGTIFGIYRKKSTDEPSEKDALQPGRNLVAAGYALYGSATMLVLAMDCGVNCFMLDPAIGEFILVDKDVKIKKKGKIYSLNEGYARDFDPAVTEYIQRKKFPPDNSAPYGARYVGSMVADVHRTLVYGGIFLYPANKKSPNGKLRLLYECNPMAYVMEKAGGMATTGKEAVLDVIPTDIHQRAPVILGSPDDVLEFLKVYEKHSAQ

For one series the following is noted: aqueous solution, pH 7.4, 37° C., Tris-HCl buffer.
With B1, the “T1/10 (time to 10% degradation by deamidation)” value is recorded as 12 days.

For the molecule B2, the “T1/10 (time to 10% degradation by deamidation)” value is 15 days.

For the molecule B3, the “T1/10 (time to 10% degradation by deamidation)” value was 11 days.

For the molecule B4, the “T1/10 (time to 10% degradation by deamidation)” value was 0.27 days.

As for B5, the “T1/10 (time to 10% degradation by deamidation)” value was 7.3 days.

For the molecule B6, the “T1/10 (time to 10% degradation by deamidation)” value was 4.3 days.

Turning to B7, the “T1/10 (time to 10% degradation by deamidation)” value is recorded as 10 days.

As to B8, the “T1/10 (time to 10% degradation by deamidation)” value is listed as 5.5 days.

B9: the “T1/10 (time to 10% degradation by deamidation)” value is 0.21 days.

The series is the same for the next values; noted with them: buffer, pH 7.4.
In the case of B10, the “T1/2 (half-life, deamidation)” value is given as 59 days.

The same series, now with this note: pH 7.4.
For B10, the “T1/10 (time to 10% degradation by deamidation)” value was 9.0 days.
